Laboratory results as given in PMC5974397, “Oligomeric states of microbial rhodopsins determined by high-speed atomic force microscopy and circular dichroic spectroscopy” (Scientific Reports, 2018).
Several values for one entry are separate records, joined by “and”; a condition that tells them apart may be missing. Identical values can stand only once. One block for each molecule: values may come before it.

Columns and labels:
[1] = target: Krokinobacter eikastus rhodopsin 2 (Krokinobacter eikastus); experiment: circular dichroism spectroscopy (visible, exciton coupling of retinals); protein solubilized in DDM
[2] = target: Krokinobacter eikastus rhodopsin 2 (Krokinobacter eikastus); experiment: high-speed atomic force microscopy (HS-AFM); protein reconstituted in asolectin lipid membrane of limited size with MSP1E3D1, on APTES-treated mica; 20 mM Tris-HCl (pH 8.0), 50 mM NaCl, room temperature; oligomer seen subunit by subunit
[3] = target: Parvularcula oceani xenorhodopsin (Parvularcula oceani); experiment: circular dichroism spectroscopy (visible, exciton coupling of retinals); protein reconstituted in POPE/POPG (3:1) liposomes, protein:lipid 1:50; 100 mM NaCl, 20 mM Tris-HCl (pH 8.0), 25 °C
[4] = target: Parvularcula oceani xenorhodopsin (Parvularcula oceani); experiment: high-speed atomic force microscopy (HS-AFM); protein reconstituted in asolectin lipid membrane of limited size with MSP1E3D1, on APTES-treated mica; 20 mM Tris-HCl (pH 8.0), 50 mM NaCl, room temperature; oligomer seen subunit by subunit
[5] = target: Quadrisphaera actinorhodopsin (Quadrisphaera sp. R2A-380-A); experiment: as above
[6] = target: Kineococcus radiotolerans actinorhodopsin (Kineococcus radiotolerans); experiment: as above
[7] = target: Anabaena sensory rhodopsin (Anabaena sp. PCC7120); experiment: circular dichroism spectroscopy (visible, exciton coupling of retinals); protein reconstituted in POPE/POPG (3:1) liposomes, protein:lipid 1:50; 100 mM NaCl, 20 mM Tris-HCl (pH 8.0), 25 °C
[8] = target: Anabaena sensory rhodopsin (Anabaena sp. PCC7120); experiment: high-speed atomic force microscopy (HS-AFM); protein reconstituted in asolectin lipid membrane of limited size with MSP1E3D1, on APTES-treated mica; 20 mM Tris-HCl (pH 8.0), 50 mM NaCl, room temperature; oligomer seen subunit by subunit
[9] = target: KR2_(278) (Krokinobacter eikastus); experiment: high-speed atomic force microscopy (HS-AFM); protein reconstituted in asolectin lipid membrane with MSP1E3D1, on APTES-treated mica; acidic solution: 20 mM citrate-NaOH (pH 4.3), 50 mM NaCl, room temperature
[10] = target: KR2_(278) (Krokinobacter eikastus); experiment: high-speed atomic force microscopy (HS-AFM); protein reconstituted in asolectin lipid membrane of limited size with MSP1E3D1, on APTES-treated mica; 20 mM Tris-HCl (pH 8.0), 50 mM NaCl, room temperature; oligomer seen subunit by subunit
[11] = target: Fulvimarina rhodopsin (Fulvimarina pelagi); experiment: as above
[12] = target: T1, Natronomonas pharaonis sensory rhodopsin II (Natronomonas pharaonis), P42196; experiment: as above; conditions: remark: other sources report otherwise
T1 chain: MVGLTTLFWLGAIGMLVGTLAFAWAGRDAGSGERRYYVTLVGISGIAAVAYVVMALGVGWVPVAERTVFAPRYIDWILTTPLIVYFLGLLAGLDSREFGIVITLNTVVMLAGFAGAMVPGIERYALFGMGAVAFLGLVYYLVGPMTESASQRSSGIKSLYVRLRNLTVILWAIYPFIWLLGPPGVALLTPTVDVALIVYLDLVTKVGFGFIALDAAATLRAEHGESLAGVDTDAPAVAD

[13] = target: the molecule itself; experiment: as above

Molecule: Kineococcus radiotolerans actinorhodopsin (natural protein)
stoichiometry N [6]: 5

Molecule: Anabaena sensory rhodopsin (natural protein)
stoichiometry N [7]: 3
stoichiometry N [8]: 3

Molecule: KR2_(278) (domain or fragment)
stoichiometry N [9]: 5
stoichiometry N [10]: 5

B2: green-absorbing proteorhodopsin (natural protein, uncultured marine gamma proteobacterium, UniProt Q9F7P4 18-249, looked up)
chain: AGGGDLDASDYTGVSFWLVTAALLASTVFFFVERDRVSAKWKTSLTVSGLVTGIAFWHYMYMRGVWIETGDSPTVFRYIDWLLTVPLLICEFYLILAAATNVAGSLFKKLLVGSLVMLVFGYMGEAGIMAAWPAFIIGCLAWVYMIYELWAGEGKSACNTASPAVQSAYNTMMYIIIFGWAIYPVGYFTGYLMGDGGSALNLNLIYNLADFVNKILFGLIIWNVAVKESSNA
modifications: retinal chromophore
notes: Green-absorbing proteorhodopsin (GPR), proton pump, from uncultured marine gamma proteobacterium; Pentamers (76%) and hexamers (24%) coexist in the lipid; copies gives the dominant form; also called green proteorhodopsin
stoichiometry N [13]: 5 and 6

B3: Gloeobacter rhodopsin (natural protein, Gloeobacter violaceus PCC 7421, UniProt Q7NP59 1-298, looked up)
chain: MLMTVFSSAPELALLGSTFAQVDPSNLSVSDSLTYGQFNLVYNAFSFAIAAMFASALFFFSAQALVGQRYRLALLVSAIVVSIAGYHYFRIFNSWDAAYVLENGVYSLTSEKFNDAYRYVDWLLTVPLLLVETVAVLTLPAKEARPLLIKLTVASVLMIATGYPGEISDDITTRIIWGTVSTIPFAYILYVLWVELSRSLVRQPAAVQTLVRNMRWLLLLSWGVYPIAYLLPMLGVSGTSAAVGVQVGYTIADVLAKPVFGLLVFAIALVKTKADQESSEPHAAIGAAANKSGGSLIS
modifications: retinal chromophore
notes: Gloeobacter rhodopsin (GR), proton pump, from Gloeobacter violaceus PCC 7421; also called GR; rhodopsin from Gloeobacter violaceus PCC 7421; not shown: His6, C-terminal, kept
stoichiometry N [13]: 5

B4: Natronomonas pharaonis halorhodopsin (natural protein, UniProt P15647 1-291, looked up)
chain: MTETLPPVTESAVALQAEVTQRELFEFVLNDPLLASSLYINIALAGLSILLFVFMTRGLDDPRAKLIAVSTILVPVVSIASYTGLASGLTISVLEMPAGHFAEGSSVMLGGEEVDGVVTMWGRYLTWALSTPMILLALGLLAGSNATKLFTAITFDIAMCVTGLAAALTTSSHLMRWFWYAISCACFLVVLYILLVEWAQDAKAAGTADMFNTLKLLTVVMWLGYPIVWALGVEGIAVLPVGVTSWGYSFLDIVAKYIFAFLLLNYLTSNESVVSGSILDVPSASGTPADD
modifications: retinal chromophore
notes: Halorhodopsin (chloride pump) from Natronomonas pharaonis; also called NpHR
stoichiometry N [13]: 3

Second part, the molecule after the results:

stoichiometry N [1]: 5
stoichiometry N [2]: 5
Molecule: Krokinobacter eikastus rhodopsin 2 (natural protein)

stoichiometry N [3]: 3
stoichiometry N [4]: 3
Molecule: Parvularcula oceani xenorhodopsin (natural protein)

stoichiometry N [5]: 5
Molecule: Quadrisphaera actinorhodopsin (natural protein)

stoichiometry N [11]: 5
Molecule: Fulvimarina rhodopsin (natural protein)

stoichiometry N [12]: 3
B1: Natronomonas pharaonis sensory rhodopsin II, P42196 1-239 (natural protein)
chain: MVGLTTLFWLGAIGMLVGTLAFAWAGRDAGSGERRYYVTLVGISGIAAVAYVVMALGVGWVPVAERTVFAPRYIDWILTTPLIVYFLGLLAGLDSREFGIVITLNTVVMLAGFAGAMVPGIERYALFGMGAVAFLGLVYYLVGPMTESASQRSSGIKSLYVRLRNLTVILWAIYPFIWLLGPPGVALLTPTVDVALIVYLDLVTKVGFGFIALDAAATLRAEHGESLAGVDTDAPAVAD
modifications: here or on the partner: retinal chromophore; retinal chromophore
